Target: FMR1 (mouse, UniProt P35922 1-614)
Assay: co-IP of Mena from E15.5 mouse brain lysates, western blot
Experimental: Collected lysates were cleared by centrifugation for 20 minutes 14k rpm at 4° C., and incubated overnight at 4° C. with antibodies on magnetic protein G beads (incubated in PBS for 4 hours at 4° C. After IP, beads were washed three times with lysis buffer containing 0.4% NP40, and boiled in 2× sodium dodecyl sulfate (SDS) sample buffer for loading onto an acrylamide gel either for western blotting or for Mass Spectrometry.
Mass spectrometry was performed after immunoprecipitation (IP) of Mena from lysates of E15.5 mouse brains from Mena-wild type and Mena-deficient animals. […] To verify the specificity of these interactions, co-IP experiments from E15.5 mouse brains was performed using Mena-deficient brain lysates or isotype-specific antibodies as negative controls.

B1: Mouse Mena/ENAH (Protein enabled homolog) (other)
chain: MSEQSICQARAAVMVYDDANKKWVPAGGSTGFSRVHIYHHTGNNTFRVVGRKIQDHQVVINCAIPKGLKYNQATQTFHQWRDARQVYGLNFGSKEDANVFASAMMHALEVLNSQEAAQSKVTATQDSTNLRCIFCGPTLPRQNSQLPAQVQNGPSQEELEIQRRQLQEQQRQKELERERMERERLERERLERERLERERLEQEQLERQRQEREHVERLERERLERLERERQERERERLEQLEREQVEWERERRMSNAAPSSDSSLSSAPLPEYSSCQPPSAPPPSYAKVISAPVSDATPDYAVVTALPPTSTPPTPPLRHAATRFATSLGSAFHPVLPHYATVPRPLNKNSRPSSPVNTPSSQPPAAKSCAWPTSNFSPLPPSPPIMISSPPGKATGPRPVLPVCVSSPVPQMPPSPTAPNGSLDSVTYPVSPPPTSGPAAPPPPPPPPPPPPPPPLPPPPLPPLASLSHCGSQASPPPGTPLASTPSSKPSVLPSPSAGAPASAETPLNPELGDSSASEPGLQAASQPAESPTPQGLVLGPPAPPPPPPLPSGPAYASALPPPPGPPPPPPLPSTGPPPPPPPPPPLPNQAPPPPPPPPAPPLPASGIFSGSTSEDNRPLTGLAAAIAGAKLRKVSRVEDGSFPGGGNTGSVSLASSKADAGRGNGPLPLGGSGLMEEMSALLARRRRIAEKGSTIETEQKEDRNEDAEPITAKAPSTSTPEPTRKPWERTNTMNGSKSPVISRPKSTPSSQPSANGVQTEGLDYDRLKQDILDEMRKELAKLKEELIDAIRQELSKSNTA
notes: Endogenous Mena from E15.5 mouse brain lysates, cultured mouse cortical neurons, N2A cells or MEFs
**Q.** Does B1 bind?
**A.** no binding

From patent US20200172904A1 (MIT, published 2020)
